Article PMC5084080

Molecular target: LarB1-His (Rhodococcus jostii)
Assay: BLI

Kd: 440 nM
Substance: LarA-MBP (from UniProt H7C8I3 1-46) (natural protein)
